Reference: US20200087347 (published 2020)
Read-outs that look alike come from different tables or passages of the source. Side-chain parts run from the residue outwards. [ ]: non-standard residue; d: D form. N‑Me‑Lys‑pentyne = N-methyl-lysine carrying a pentyne (alkyne) group; Pro‑4‑NH‑hexyne = not defined here; NMeK = CN[C@@H](CCCCN)C(=O)O; Ahx = NCCCCCC(=O)O; BDPFL = dye

T1: integrin αvβ8 (human, UniProt P06756)
T1 chain 1: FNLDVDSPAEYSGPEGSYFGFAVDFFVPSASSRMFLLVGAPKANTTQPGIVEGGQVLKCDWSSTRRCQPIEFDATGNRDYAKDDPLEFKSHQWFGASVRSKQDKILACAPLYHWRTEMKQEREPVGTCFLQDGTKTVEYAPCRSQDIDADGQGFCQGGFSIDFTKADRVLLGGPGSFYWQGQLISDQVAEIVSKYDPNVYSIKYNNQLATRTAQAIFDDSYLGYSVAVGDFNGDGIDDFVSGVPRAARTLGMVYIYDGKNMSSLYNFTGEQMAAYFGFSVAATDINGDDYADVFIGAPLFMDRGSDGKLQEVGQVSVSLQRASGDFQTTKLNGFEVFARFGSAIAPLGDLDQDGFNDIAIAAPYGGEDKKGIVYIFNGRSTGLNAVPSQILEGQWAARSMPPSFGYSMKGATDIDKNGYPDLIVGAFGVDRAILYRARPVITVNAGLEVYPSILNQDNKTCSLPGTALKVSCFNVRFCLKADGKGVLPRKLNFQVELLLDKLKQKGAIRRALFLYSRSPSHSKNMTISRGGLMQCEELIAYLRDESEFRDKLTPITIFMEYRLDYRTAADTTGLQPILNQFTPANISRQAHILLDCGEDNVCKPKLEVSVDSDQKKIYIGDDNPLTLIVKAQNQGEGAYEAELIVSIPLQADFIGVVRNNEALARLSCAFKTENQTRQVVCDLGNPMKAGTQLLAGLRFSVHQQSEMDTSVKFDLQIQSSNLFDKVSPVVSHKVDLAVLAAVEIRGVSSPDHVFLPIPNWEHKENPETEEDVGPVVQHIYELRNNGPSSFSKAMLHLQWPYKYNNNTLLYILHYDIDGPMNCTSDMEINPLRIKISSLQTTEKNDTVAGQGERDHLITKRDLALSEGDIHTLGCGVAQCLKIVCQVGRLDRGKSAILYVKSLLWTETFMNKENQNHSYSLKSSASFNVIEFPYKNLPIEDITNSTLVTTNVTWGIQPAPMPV
T1 chain 2: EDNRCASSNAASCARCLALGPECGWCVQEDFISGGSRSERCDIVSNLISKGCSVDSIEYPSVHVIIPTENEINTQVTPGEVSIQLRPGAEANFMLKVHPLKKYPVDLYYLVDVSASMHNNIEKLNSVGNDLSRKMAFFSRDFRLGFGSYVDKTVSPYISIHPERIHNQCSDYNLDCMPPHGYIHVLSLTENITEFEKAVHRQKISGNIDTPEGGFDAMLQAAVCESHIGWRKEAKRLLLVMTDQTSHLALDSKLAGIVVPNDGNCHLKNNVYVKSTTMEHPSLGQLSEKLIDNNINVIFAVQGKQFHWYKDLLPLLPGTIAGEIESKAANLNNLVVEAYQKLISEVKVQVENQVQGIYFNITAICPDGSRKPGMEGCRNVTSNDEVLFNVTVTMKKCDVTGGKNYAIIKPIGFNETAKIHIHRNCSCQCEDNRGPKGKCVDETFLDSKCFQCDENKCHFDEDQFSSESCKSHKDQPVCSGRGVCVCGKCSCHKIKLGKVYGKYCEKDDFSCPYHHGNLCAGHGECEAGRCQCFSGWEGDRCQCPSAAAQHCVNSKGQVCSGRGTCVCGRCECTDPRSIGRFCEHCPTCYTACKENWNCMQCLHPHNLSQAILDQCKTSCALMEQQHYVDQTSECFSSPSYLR

T2: integrin αvβ6 (human, UniProt P06756)
T2 chain 1: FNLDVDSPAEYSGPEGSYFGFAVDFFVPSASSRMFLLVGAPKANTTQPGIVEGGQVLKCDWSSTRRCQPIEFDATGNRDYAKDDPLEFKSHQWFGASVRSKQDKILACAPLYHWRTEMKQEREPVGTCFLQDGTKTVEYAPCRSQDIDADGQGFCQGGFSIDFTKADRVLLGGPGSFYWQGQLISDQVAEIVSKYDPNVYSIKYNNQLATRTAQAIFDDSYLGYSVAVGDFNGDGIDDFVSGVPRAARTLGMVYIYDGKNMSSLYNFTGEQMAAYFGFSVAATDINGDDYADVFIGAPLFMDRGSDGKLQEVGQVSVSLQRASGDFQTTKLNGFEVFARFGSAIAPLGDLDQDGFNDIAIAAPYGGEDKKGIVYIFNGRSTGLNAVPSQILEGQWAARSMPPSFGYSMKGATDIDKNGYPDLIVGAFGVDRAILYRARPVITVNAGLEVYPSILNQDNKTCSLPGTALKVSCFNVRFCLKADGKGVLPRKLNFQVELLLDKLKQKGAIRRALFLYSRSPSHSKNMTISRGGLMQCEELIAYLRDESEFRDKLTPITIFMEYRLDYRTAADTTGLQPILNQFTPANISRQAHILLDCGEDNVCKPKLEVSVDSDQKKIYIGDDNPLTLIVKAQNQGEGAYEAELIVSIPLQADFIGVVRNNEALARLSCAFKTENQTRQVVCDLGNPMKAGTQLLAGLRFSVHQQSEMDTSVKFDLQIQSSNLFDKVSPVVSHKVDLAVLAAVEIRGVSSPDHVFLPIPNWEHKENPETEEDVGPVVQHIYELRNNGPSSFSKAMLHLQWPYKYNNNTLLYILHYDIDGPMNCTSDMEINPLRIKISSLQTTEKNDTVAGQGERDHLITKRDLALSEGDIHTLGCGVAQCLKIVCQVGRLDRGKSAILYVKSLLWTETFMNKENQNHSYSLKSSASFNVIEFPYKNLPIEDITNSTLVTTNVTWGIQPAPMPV
T2 chain 2: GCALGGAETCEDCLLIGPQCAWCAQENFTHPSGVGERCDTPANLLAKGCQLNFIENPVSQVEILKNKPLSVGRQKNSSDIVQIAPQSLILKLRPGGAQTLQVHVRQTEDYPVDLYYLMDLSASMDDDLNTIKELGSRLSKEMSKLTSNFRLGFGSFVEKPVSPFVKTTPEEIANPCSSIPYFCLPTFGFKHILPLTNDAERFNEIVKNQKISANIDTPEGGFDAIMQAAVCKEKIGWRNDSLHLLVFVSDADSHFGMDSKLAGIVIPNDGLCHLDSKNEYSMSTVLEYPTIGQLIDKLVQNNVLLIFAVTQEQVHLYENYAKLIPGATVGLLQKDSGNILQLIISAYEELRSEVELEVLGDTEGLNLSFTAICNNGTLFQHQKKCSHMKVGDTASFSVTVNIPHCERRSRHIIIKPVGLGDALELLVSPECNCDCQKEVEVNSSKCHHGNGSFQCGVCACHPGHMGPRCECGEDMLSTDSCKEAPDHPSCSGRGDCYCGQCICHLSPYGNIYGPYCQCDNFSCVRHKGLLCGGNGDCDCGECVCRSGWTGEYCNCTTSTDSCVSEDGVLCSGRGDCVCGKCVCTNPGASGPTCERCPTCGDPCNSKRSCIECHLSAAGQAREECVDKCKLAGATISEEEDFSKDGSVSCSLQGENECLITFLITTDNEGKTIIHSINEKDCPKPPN

T3: integrin αvβ3 (human, UniProt P06756)
T3 chain 1: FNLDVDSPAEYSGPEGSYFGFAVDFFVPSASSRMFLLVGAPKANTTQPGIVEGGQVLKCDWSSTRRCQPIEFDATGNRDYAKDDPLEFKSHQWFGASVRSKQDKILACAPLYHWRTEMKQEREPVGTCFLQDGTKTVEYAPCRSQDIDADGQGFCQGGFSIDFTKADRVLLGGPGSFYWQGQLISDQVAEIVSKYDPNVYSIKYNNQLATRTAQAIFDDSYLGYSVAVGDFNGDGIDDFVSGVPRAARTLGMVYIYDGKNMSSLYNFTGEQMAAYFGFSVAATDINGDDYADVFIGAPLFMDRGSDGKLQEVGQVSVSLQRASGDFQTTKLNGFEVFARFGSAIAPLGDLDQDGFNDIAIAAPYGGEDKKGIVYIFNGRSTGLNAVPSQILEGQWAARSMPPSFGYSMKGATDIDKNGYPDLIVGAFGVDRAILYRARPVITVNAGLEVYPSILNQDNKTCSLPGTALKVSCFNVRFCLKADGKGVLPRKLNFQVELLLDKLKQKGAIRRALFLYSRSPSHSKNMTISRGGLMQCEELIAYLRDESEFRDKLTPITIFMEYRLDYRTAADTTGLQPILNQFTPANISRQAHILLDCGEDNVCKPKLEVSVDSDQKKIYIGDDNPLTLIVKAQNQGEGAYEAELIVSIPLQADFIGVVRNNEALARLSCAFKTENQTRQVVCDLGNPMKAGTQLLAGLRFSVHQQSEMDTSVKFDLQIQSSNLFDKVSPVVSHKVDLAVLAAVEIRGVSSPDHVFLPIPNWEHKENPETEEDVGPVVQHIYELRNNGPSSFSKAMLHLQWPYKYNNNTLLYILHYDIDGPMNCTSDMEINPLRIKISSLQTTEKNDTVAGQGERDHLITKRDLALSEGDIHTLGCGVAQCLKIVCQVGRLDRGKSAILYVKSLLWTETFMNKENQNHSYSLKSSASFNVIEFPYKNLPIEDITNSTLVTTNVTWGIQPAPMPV
T3 chain 2: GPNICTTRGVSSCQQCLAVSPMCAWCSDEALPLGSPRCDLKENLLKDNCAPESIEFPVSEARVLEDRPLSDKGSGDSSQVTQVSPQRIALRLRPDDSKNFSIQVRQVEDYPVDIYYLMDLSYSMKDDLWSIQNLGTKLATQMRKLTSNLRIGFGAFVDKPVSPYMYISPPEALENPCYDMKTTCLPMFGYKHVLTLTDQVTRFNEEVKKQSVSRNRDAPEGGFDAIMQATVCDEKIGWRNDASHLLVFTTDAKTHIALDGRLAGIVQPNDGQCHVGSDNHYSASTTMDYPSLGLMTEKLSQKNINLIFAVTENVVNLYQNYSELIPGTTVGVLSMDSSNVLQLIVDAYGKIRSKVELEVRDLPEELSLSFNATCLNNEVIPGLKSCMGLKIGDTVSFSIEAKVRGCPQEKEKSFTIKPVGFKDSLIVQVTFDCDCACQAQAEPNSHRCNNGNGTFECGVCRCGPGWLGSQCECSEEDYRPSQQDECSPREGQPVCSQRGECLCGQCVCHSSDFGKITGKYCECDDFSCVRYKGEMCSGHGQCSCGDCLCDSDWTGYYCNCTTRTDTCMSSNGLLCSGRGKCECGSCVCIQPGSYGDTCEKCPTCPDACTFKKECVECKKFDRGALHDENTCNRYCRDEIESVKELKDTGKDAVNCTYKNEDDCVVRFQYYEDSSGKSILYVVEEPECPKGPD


What was measured:
Assay in all cases: competition
integrin αvβ8 [1] = biological target: T1, integrin αvβ8
integrin αvβ6 [2] = biological target: T2, integrin αvβ6
integrin αvβ8 [3] = biological target: T1, integrin αvβ8
integrin αvβ6 [4] = biological target: T2, integrin αvβ6
integrin αvβ3 = biological target: T3, integrin αvβ3

Binder | IC50 (integrin αvβ8 [1]) [nM] | IC50 (integrin αvβ6 [2]) [nM] | IC50 (integrin αvβ8 [3]) [nM] | IC50 (integrin αvβ6 [4]) [nM] | IC50 (integrin αvβ3) [nM]
cyclo(RGDL[dP]PAL) (SMILES CC(C)C[C@@H]1NC(=O)[C@H](C)NC(=O)[C@@H]2CCCN2C(=O)[C@H]2CCCN2C(=O)[C@H](CC(C)C)NC(=O)[C@H](CC(=O)O)NC(=O)CNC(=O)[C@H](CCCNC(=N)N)NC1=O) [Compound 7] | 1.31 | 32 |  |  | 
cyclo(RGD[dF]K) (also: Ahx-BDPFL conjugate, attachment site not given here) [Compound 13 (Table 3) c(RGDfK)-Ahx-BDPFL] |  |  | 258 | 7.8 | 2.55
cyclo(RGDL[dP]PAH) (SMILES CC(C)C[C@@H]1NC(=O)[C@H](CC(=O)O)NC(=O)CNC(=O)[C@H](CCCNC(=N)N)NC(=O)[C@H](Cc2c[nH]cn2)NC(=O)[C@H](C)NC(=O)[C@@H]2CCCN2C(=O)[C@H]2CCCN2C1=O) [Compound 5] | 2.2 | 171 |  |  | 
cyclo(RGDL[dP][Pro‑4‑NH‑hexyne]GL) (reading uncertain) [Compound 12 (Table 1)] | 8.8 | 217 |  |  | 
cyclo(RGDL[dP][N‑Me‑Lys‑pentyne]GL) [Compound 11 (Table 1)] | 1.7 | 41 |  |  | 
cyclo(RGDL[dP][NMeK]([Ahx-Ahx-BDPFL])GL) [Compound 9c (9-Ahx-Ahx-BDPFL)] |  |  | 1.52 | 64 | 500
